Data published in the array DNA melting data of Ke et al..

Experiment: melting temperature; melt of duplexes
Conditions: sodium 0.0675 M; strand 1 µM
“CGACGTGCCATATGTGCTG+CAGCACATAACGCACGTCG ((((((((..(((((((((+)))))))))..))))))))” showed a Tm of 49.1 °C. “CGACGTGCCATATGTGCTG+CAGCACATAAGGCACGTCG (((((((((.(((((((((+))))))))).)))))))))” gave a Tm of 56.9 °C. In the case of “CGACGTGCCATATGTGCTG+CAGCACATACAGCACGTCG ((((((((..(((((((((+)))))))))..))))))))”, the Tm is reported as 49.9 °C. Work on “CGACGTGCCATATGTGCTG+CAGCACATACCGCACGTCG ((((((((..(((((((((+)))))))))..))))))))” yielded a Tm of 48.3 °C. “CGACGTGCCATATGTGCTG+CAGCACATACTGCACGTCG ((((((((..(((((((((+)))))))))..))))))))” showed a Tm of 49.3 °C. “CGACGTGCCATATGTGCTG+CAGCACATATGGCACGTCG (((((((((((((((((((+)))))))))))))))))))” gave a Tm of 63 °C. “CGACGTGCCATATGTGCTG+CAGCACATCAAGCACGTCG ((((((((...((((((((+))))))))...))))))))” gave a Tm of 48.6 °C. Substance “CGACGTGCCATATGTGCTG+CAGCACATCACGCACGTCG ((((((((...((((((((+))))))))...))))))))” has a Tm of 47.6 °C. Substance “CGACGTGCCATATGTGCTG+CAGCACATCAGGCACGTCG (((((((((..((((((((+))))))))..)))))))))” has a Tm of 53.5 °C. “CGACGTGCCATATGTGCTG+CAGCACATCCCGCACGTCG ((((((((...((((((((+))))))))...))))))))” gave a Tm of 46.9 °C. Substance “CGACGTGCCATATGTGCTG+CAGCACATCCGGCACGTCG (((((((((..((((((((+))))))))..)))))))))” has a Tm of 52.8 °C. “CGACGTGCCATATGTGCTG+CAGCACATCTCGCACGTCG ((((((((.(.((((((((+)))))))).).))))))))” gave a Tm of 47.7 °C. For “CGACGTGCCATATGTGCTG+CAGCACATGACGCACGTCG ((((((((...((((((((+))))))))...))))))))”, the Tm was 45.5 °C. “CGACGTGCCATATGTGCTG+CAGCACATGAGGCACGTCG (((((((((..((((((((+))))))))..)))))))))” gave a Tm of 56.2 °C. Work on “CGACGTGCCATATGTGCTG+CAGCACATGCGGCACGTCG (((((((((..((((((((+))))))))..)))))))))” yielded a Tm of 54.1 °C. Work on “CGACGTGCCATATGTGCTG+CAGCACATGCTGCACGTCG ((((((((...((((((((+))))))))...))))))))” yielded a Tm of 46.7 °C. With “CGACGTGCCATATGTGCTG+CAGCACATGGGGCACGTCG (((((((((..((((((((+))))))))..)))))))))” the Tm was 56.7 °C. With “CGACGTGCCATATGTGCTG+CAGCACATGTAGCACGTCG ((((((((.(.((((((((+)))))))).).))))))))” the Tm was 51.3 °C. Substance “CGACGTGCCATATGTGCTG+CAGCACATGTGGCACGTCG ((((((((((.((((((((+)))))))).))))))))))” has a Tm of 60.3 °C. With “CGACGTGCCATATGTGCTG+CAGCACATTAGGCACGTCG (((((((((..((((((((+))))))))..)))))))))” the Tm was 55.6 °C. Work on “CGACGTGCCATATGTGCTG+CAGCACATTCAGCACGTCG ((((((((...((((((((+))))))))...))))))))” yielded a Tm of 50.2 °C. Substance “CGACGTGCCATATGTGCTG+CAGCACATTCCGCACGTCG ((((((((...((((((((+))))))))...))))))))” has a Tm of 48.1 °C. “CGACGTGCCATATGTGCTG+CAGCACATTCTGCACGTCG ((((((((...((((((((+))))))))...))))))))” gave a Tm of 48.8 °C. With “CGACGTGCCATATGTGCTG+CAGCACATTGCGCACGTCG ((((((((...((((((((+))))))))...))))))))” the Tm was 51.5 °C. “CGACGTGCCATATGTGCTG+CAGCACATTTAGCACGTCG ((((((((.(.((((((((+)))))))).).))))))))” showed a Tm of 49.7 °C. With “CGACGTGCCATATGTGCTG+CAGCACATTTTGCACGTCG ((((((((.(.((((((((+)))))))).).))))))))” the Tm was 49.6 °C. “CGACGTGCCCAATGTGCTG+CAGCACATAAAGCACGTCG ((((((((...((((((((+))))))))...))))))))” gave a Tm of 50.1 °C. “CGACGTGCCCAATGTGCTG+CAGCACATAACGCACGTCG ((((((((...((((((((+))))))))...))))))))” showed a Tm of 47.3 °C. “CGACGTGCCCAATGTGCTG+CAGCACATACTGCACGTCG ((((((((...((((((((+))))))))...))))))))” gave a Tm of 47.5 °C. In the case of “CGACGTGCCCAATGTGCTG+CAGCACATAGCGCACGTCG ((((((((.(.((((((((+)))))))).).))))))))”, the Tm is reported as 48.9 °C. With “CGACGTGCCCAATGTGCTG+CAGCACATAGTGCACGTCG ((((((((.(.((((((((+)))))))).).))))))))” the Tm was 46.2 °C. For “CGACGTGCCCAATGTGCTG+CAGCACATCAAGCACGTCG ((((((((...((((((((+))))))))...))))))))”, the Tm was 48.9 °C. With “CGACGTGCCCAATGTGCTG+CAGCACATCAGGCACGTCG (((((((((..((((((((+))))))))..)))))))))” the Tm was 53.9 °C. With “CGACGTGCCCAATGTGCTG+CAGCACATCCCGCACGTCG ((((((((...((((((((+))))))))...))))))))” the Tm was 47.9 °C. Substance “CGACGTGCCCAATGTGCTG+CAGCACATCGCGCACGTCG ((((((((.(.((((((((+)))))))).).))))))))” has a Tm of 48.7 °C. Substance “CGACGTGCCCAATGTGCTG+CAGCACATCTAGCACGTCG ((((((((...((((((((+))))))))...))))))))” has a Tm of 48.8 °C. For “CGACGTGCCCAATGTGCTG+CAGCACATCTCGCACGTCG ((((((((...((((((((+))))))))...))))))))”, the Tm was 47.6 °C. With “CGACGTGCCCAATGTGCTG+CAGCACATCTGGCACGTCG (((((((((..((((((((+))))))))..)))))))))” the Tm was 53.8 °C. Work on “CGACGTGCCCAATGTGCTG+CAGCACATGATGCACGTCG ((((((((...((((((((+))))))))...))))))))” yielded a Tm of 49.7 °C. Substance “CGACGTGCCCAATGTGCTG+CAGCACATGCCGCACGTCG ((((((((...((((((((+))))))))...))))))))” has a Tm of 48.9 °C. Work on “CGACGTGCCCAATGTGCTG+CAGCACATGCTGCACGTCG ((((((((...((((((((+))))))))...))))))))” yielded a Tm of 47.8 °C. “CGACGTGCCCAATGTGCTG+CAGCACATGGGGCACGTCG ((((((((((.((((((((+)))))))).))))))))))” showed a Tm of 61.3 °C. Work on “CGACGTGCCCAATGTGCTG+CAGCACATGTTGCACGTCG ((((((((...((((((((+))))))))...))))))))” yielded a Tm of 49.4 °C. With “CGACGTGCCCAATGTGCTG+CAGCACATTCCGCACGTCG ((((((((..(((((((((+)))))))))..))))))))” the Tm was 49.3 °C. Substance “CGACGTGCCCAATGTGCTG+CAGCACATTCTGCACGTCG ((((((((..(((((((((+)))))))))..))))))))” has a Tm of 49.9 °C. In the case of “CGACGTGCCCAATGTGCTG+CAGCACATTGGGCACGTCG (((((((((((((((((((+)))))))))))))))))))”, the Tm is reported as 66 °C. Work on “CGACGTGCCCAATGTGCTG+CAGCACATTGTGCACGTCG ((((((((.((((((((((+)))))))))).))))))))” yielded a Tm of 54.7 °C. For “CGACGTGCCCCATGTGCTG+CAGCACATAAAGCACGTCG ((((((((...((((((((+))))))))...))))))))”, the Tm was 47.7 °C. “CGACGTGCCCCATGTGCTG+CAGCACATAACGCACGTCG ((((((((...((((((((+))))))))...))))))))” showed a Tm of 45.7 °C. In the case of “CGACGTGCCCCATGTGCTG+CAGCACATAAGGCACGTCG (((((((((..((((((((+))))))))..)))))))))”, the Tm is reported as 52.7 °C. In the case of “CGACGTGCCCCATGTGCTG+CAGCACATAATGCACGTCG ((((((((...((((((((+))))))))...))))))))”, the Tm is reported as 45.8 °C. For “CGACGTGCCCCATGTGCTG+CAGCACATACAGCACGTCG ((((((((...((((((((+))))))))...))))))))”, the Tm was 47.1 °C. Work on “CGACGTGCCCCATGTGCTG+CAGCACATAGCGCACGTCG ((((((((.(.((((((((+)))))))).).))))))))” yielded a Tm of 47.3 °C. For “CGACGTGCCCCATGTGCTG+CAGCACATATTGCACGTCG ((((((((...((((((((+))))))))...))))))))”, the Tm was 46.1 °C. Substance “CGACGTGCCCCATGTGCTG+CAGCACATCACGCACGTCG ((((((((...((((((((+))))))))...))))))))” has a Tm of 45.7 °C. Substance “CGACGTGCCCCATGTGCTG+CAGCACATCATGCACGTCG ((((((((...((((((((+))))))))...))))))))” has a Tm of 46.5 °C. Work on “CGACGTGCCCCATGTGCTG+CAGCACATCCGGCACGTCG (((((((((..((((((((+))))))))..)))))))))” yielded a Tm of 51.4 °C. Substance “CGACGTGCCCCATGTGCTG+CAGCACATCCTGCACGTCG ((((((((...((((((((+))))))))...))))))))” has a Tm of 46.8 °C. “CGACGTGCCCCATGTGCTG+CAGCACATCGGGCACGTCG ((((((((((.((((((((+)))))))).))))))))))” gave a Tm of 57.2 °C. Substance “CGACGTGCCCCATGTGCTG+CAGCACATCTTGCACGTCG ((((((((...((((((((+))))))))...))))))))” has a Tm of 46.7 °C. Work on “CGACGTGCCCCATGTGCTG+CAGCACATGATGCACGTCG ((((((((..(((((((((+)))))))))..))))))))” yielded a Tm of 51.8 °C. Work on “CGACGTGCCCCATGTGCTG+CAGCACATGCCGCACGTCG ((((((((..(((((((((+)))))))))..))))))))” yielded a Tm of 50.3 °C. With “CGACGTGCCCCATGTGCTG+CAGCACATGGCGCACGTCG ((((((((.((((((((((+)))))))))).))))))))” the Tm was 57.3 °C. Work on “CGACGTGCCCCATGTGCTG+CAGCACATGGGGCACGTCG (((((((((((((((((((+)))))))))))))))))))” yielded a Tm of 67.7 °C. “CGACGTGCCCCATGTGCTG+CAGCACATGGTGCACGTCG ((((((((.((((((((((+)))))))))).))))))))” gave a Tm of 56.7 °C. For “CGACGTGCCCCATGTGCTG+CAGCACATTACGCACGTCG ((((((((...((((((((+))))))))...))))))))”, the Tm was 54.6 °C. Work on “CGACGTGCCCCATGTGCTG+CAGCACATTAGGCACGTCG (((((((((..((((((((+))))))))..)))))))))” yielded a Tm of 52.5 °C. Work on “CGACGTGCCCCATGTGCTG+CAGCACATTCAGCACGTCG ((((((((...((((((((+))))))))...))))))))” yielded a Tm of 47.7 °C. In the case of “CGACGTGCCCCATGTGCTG+CAGCACATTCTGCACGTCG ((((((((...((((((((+))))))))...))))))))”, the Tm is reported as 46.9 °C. Substance “CGACGTGCCCCATGTGCTG+CAGCACATTGAGCACGTCG ((((((((.(.((((((((+)))))))).).))))))))” has a Tm of 50.1 °C. “CGACGTGCCCCATGTGCTG+CAGCACATTGCGCACGTCG ((((((((.(.((((((((+)))))))).).))))))))” showed a Tm of 48.2 °C. In the case of “CGACGTGCCCCATGTGCTG+CAGCACATTTCGCACGTCG ((((((((...((((((((+))))))))...))))))))”, the Tm is reported as 46 °C.
